According to a protein production outcome set (Wang et al. 2014):

Experiment: label from the status in PepcDB records
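Also: failed if final PepcDB status was selected cloned or expressed and not failed if soluble or beyond.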

Sequence | protein production
MEIKYLSLCILAGILFVSQVNASENNGKDDVKYAALTQKDLDALPVEKRASVLDELGFIHEYGIGVPMNRERALQYYKQACELGGNYGCYNVKYAYQYGDGVAKDSAQANKYAKKMNLDNLLIEQEYIDKFSQGIYAAKVLADTDKSQRPEFINALFNLLNNRPESDALFFSRIGFNQEKTFRLATLWVQDGDPQMDYQLGLLTLNDFSGHYVDEPYKARPASLKWFRAATEKGVVEAQSLLGGIYSGGEGDEWGIKPDIQEAQKWYGQAAEQGDSDAQIALGKIYYSGATGRTDYAKALALFTQVENDGTNSRSTMPLSWMYYNGLGTAPDCDKAWSYYKKASRYVGKKVEEKIFLSKCAADIQSRKNNADALPRVTLKKASIFSRGITAKPKECALIFQIGTDKIRNMANLHITLELKNADGMATEETLMIPPFGLNTLGIDMQNHDVDPLVTPYDLPLYTQDFCHGIGDIHFTLKSATATINGKNVDLLKADSVRFLDKE | failed
MEILQFIGYGNMAQAILEGAHEILSKRFILEITGRNPEKIAPFLQEKNIQAQIVPYKDAIDIHQKFVFLLFKPYNLKDFNYQGQAKSVLSALAGVGFKALSDAIDSLHYLKCMPNIASKFALSSTAVCEKSPMPLISQKALSVIESFGNCVRVGHEELVDASVATNGSALAFLSLVANSLKDAGIREGLNARGSLELVKMSFKGFAKLLEKERPEMIIEQICTPKGATIEGLSVLEKKGVRGAFIEACHKSVKKMRL | failed
MEINADFTKPVVIDTDQLEWRPSPMKGVERRMLDRIGGEVARATSIVRYAPGSRFSAHTHDGGEEFIVLDGVFQDEHGDYPAGTYVRNPPTTSHVPGSAEGCTIFVKLWQFDPADRTQFSKNMEAELGAPVEGISTSLLHEDERETVTHRKLEPGANLTSEAAGGIEVLVLDGDVTVNDEVLGRNAWLRLPEGEALSATAGARGAKIWMKTGHLRFVRTPEV | not failed
MEINNNISSTIPLVDIVLVFCYVFSFYVIGPLTSSVIIALPLMFCCLYKKKWGYCLLLELKNSFIVRIFISQWLLIGIAVFYSCLHLTMELEYIKVLIAQMFHFICGIFIIIYLKYQKQYTTLKIEQTIIWAFLVQSIIQLIAMSIPSFAHFILYFSRAHDLQDAYGGGVRGLALSSGVGWSLGLAYGLIYIVFVKRYLLSGVNMKSTLIGILLLMGTIFAGRTGFVGACLGGIFFIISNQLSYRTKLMFVLKILLGVILFFLCIYFLFPSMTEHLVDNVFPFAFEPFYKMYYNDEFSTSSTDRLEEMWRVSTSVEEILYGSGSFIDTITGAYYKHIDIGILRNLFYWGIGGYILLIIYQLILIAPIKYNKIQRVSHFNMFFYKLLIIVYLFLLECKAVTIGLNKMTFSVIFLIAYFYFDEIHSKKYIAELR | failed
MEIRTLALKTPEGQPFTMWIYQHDQFTLFPDDRLWPLALIFPGGGFAGYSEREVEAVALKFIAKGYQAAVVKYNLTSDGPFYPTAATIGLAALSYVKRHAQELNADFDHVVVSGFSAGGHLVAVMTALGAQSEFLNNHGFEETKLVPFAQILSYPVIDLTMGFPTSQHEMMAVTTDESYWHAQELVTSQTPPTFIWATRTDELVPVVNSLVYLAALGEHNVPFESHIYAAGVHGLAFGDLADSRYHHPEDVVPRVQNWFPMALGWLRTLYASKNSTEILEHHHHHH | failed
MEISSGGSGMATRARGVVRDGTRALVLAVVGLPGALVLYVLAVVSLLLVPLGVGIVTTPWVLAGVRGFADWRRVVAAEWCGVRIPSGYRPVPVDANPWGRCFRLLSDRATWRDLIWLQVDMTAGFVTALLPAALLFYPLEGFALAAGLWRVFTDGTYIGWWYAFVPVSGQASALAAGALGVVFLVASYHLTPSLLRVHFLLTRAVLAPGQGELAERVRVLTETRRAAVDTSAAELRRIERDLHDGAQARLVAMGMDLGTIEALIEKDPAKARELLARARKSSADALTELRDLVRGIHPPVLAERGLGDAVRALALRVPIASEVNVDFDGRRAAAPVESAAYFAVSEVLTNAVKHAGADRVWIDLRHSDGMLRIAVTDNGRGGARIGTGSGLAGIERRLGTFDGVLAVSSPAGGPTMVSLEIPCELS | failed
MEIVQEGIAKIIVPEIPKTVSSDMPVFYNPRMRVNRDLAVLGLEYLCKKLGRPVKVADPLSASGIRAIRFLLETSCVEKAYANDISSKAIEIMKENFKLNNIPEDRYEIHGMEANFFLRKEWGFGFDYVDLDPFGTPVPFIESVALSMKRGGILSLTATDTAPLSGTYPKTCMRRYMARPLRNEFKHEVGIRILIKKVIELAAQYDIAMIPIFAYSHLHYFKLFFVKERGVEKVDKLIEQFGYIQYCFNCMNREVVTDLYKFKEKCPHCGSKFHIGGPLWIGKLWDEEFTNFLYEEAQKREEIEKETKRILKLIKEESQLQTVGFYVLSKLAEKVKLPAQPPIRIAVKFFNGVRTHFVGDGFRTNLSFEEVMKKMEELKEKQKEFLEKKKQG | not failed
MEIVYVYVKKRSEFGKQCNFSDRQAELNIDISPNPELAALYVERNPVDTGIQCSASMSEHEANTERFEMENCGVNHVEGGWPKDVNPQELEQTIRFRKKVEKDENYINAVMQLGSIMEHCIKQNNAIDIYEEYFDDEEAVEVTEEAPSAKTINVFRDPQEIKRTATHLSWHPDGNKKLAVAYSCLQFQRSPMGMSHDSYIWDLENPNRPEIALKPSSPLITLEYNPKDSHVLLGGCYNGQIACWDTRKGSLVAELSTIEFSHRDPVYGTIWLQSKTGTECFSASTDGQVMWWDIRKISEPTEVVIMDITRKEQLENALGAISLEFESTLETPFQMGRGLGCILSRRPELKQQNEKLEGKPLTLPSHHRVPVRLGFYPCFPTNKRGLGDTCRSWLSPSSWAQGTKLRLSVLVANAVEPVTAWAAFTHMQSLHTQEHTVSTLGRFYFMYKQISKILTRTLTGASSVLKVCDDPLFCLRVQDTGCLIACGSELGTTTLLEVSSSLSTLQRNERNIASSIFERETRREKILEARHREMRLKEKGKAEGRDDDQKEEETALDLDELVNKAEEEFFEVIFAELKRKEAEALKKKPKPKKASIEVEGEDELEDIAGEEEESGIIMGEDTGEDDMDEKNEGGAP | failed
MEKADIEAIFARSRFISAMNLEILDIDHAGSRFSVRMPLQDTYERGAPGTKQFHGGALAALIDVVGDFAIGMLVGGGVPTMNLRIDYLRPAVGDYVDGVAVVRKAGKSAAVVDIDILCPAGKLVAIGRGTYVPITGLEHHHHHH | failed
MEKAMPESFVVRREAHLAAPPAAVFALMTDPEKILRWMGTEAEVEPEPGGLYLVNVTGARFARGSFREVVPVHRLAYSFGWDGSEVVPPGSSLVEIDLIEQGGGTLLRLTHSGLPSAEQCAGHEEGWAHYLGRLTEVAAGRDPGLEHHHHHH | failed
MEKFLTTTYKELNSSMYKFSKGLTLVLFSLALSACSSSPEDNDIAAKTSPDELYSQARTSMELGNYSKAVRSLEALDSRFPFGPHKTQVQLDLIYAYYKMDDVASGIANIDRFIRLNPTHPNIDYVYYMRGLVNMQADSYLFHDMLNIDRTDRDPKNAQDAFKDFDRLIKTYPNSKYAADAQKRMLSLKNRLAKYSIQVAEYYIKMNAWSAAAVRAQSVLETYPGTPSTERALEIMAEAYGELGQNQLKQNVLMVMQANFPNNEILSN | failed
MEKIERLRSAFDEAGIDGILLTNEHSRRYMANFTGTAGVVLISKKRAQFITDFRYVEQASKQAVGYEIVQHAGLIIDEVAKQVKELGIQKLGFEQDTLTYSSYSAHKEAIDAEFIPTSGLVEKLRLIKTDSEIKILKEAAQIADAAFEHILSFIRPGVSEIEVSNELEFFMRKQGATSSSFDIIVASGLRSALPHGVASEKVIETGDFVTLDFGAYYKGYCSDITRTIAVGEPSDKLKEIYNIVLEAQLRGVNGIKAGLTGREADALTRDYITEKGYGEYFGHSTGHGIGLEIHEAPGLAFRSDTVLEPGMAVTVEPGIYIPGIGGVRIEDDIIVTSEGNEVITKSPKELIIL | not failed
MEKIGETMAKLGQNTRVNSDQLIQTILADPEVASFISQHHLSQEQINLSLSKFNQFLVERQKYQLKDPSYIAKGYQPILAMNEGYADVSYLETKELVEAQKQAAISERIQLVSLPKSYRHIHLSDIDVNNASRMEAFSAILDFVEQYPSAEQKGLYLYGDMGIGKSYLLAAMAHELSEKKGVSTTLLHFPSFAIDVKNAISNGSVKEEIDAVKNVPVLILDDIGAEQATSWVRDEVLQVILQYRMLEELPTFFTSNYSFADLERKWATIKGSDETWQAKRVMERVRYLAREFHLEGANRRLEHHHHHH | not failed
MEKKEMEKLCQRCKQSYTDLSNETSSCRFHPSFFVCRRHDDQKRYYELKPDDPPYAAKFYDCCGAEDPNAPGVKDLACDLSAGYCLEPLLALHTATE | failed
MEKLGQFIINHWQLWLAFVVVVFLIFINEILSQRKKAKEVSPQSLVDLMNNGNAIVIDIRDKESFKNGHIINSMNVNPDDFEQQKMSKYKDKPIILVCARGLQSPTLAMKIRNQGYQPLVLSGGIQAWQNADLPLVKGK | failed
MEKNLLRSALKIFEKKDLSLLAYSGRSIFESKDSGLKPVVELFKRFDNLEGSLVIDKMVGKAAASFLLKMKPDHIHAKVISKPALKLMNEYGQSFSYDEKIPFVLGKDGKSMCPFEKLVLEMDDPEEIIRIVLSKFTSL | not failed
MEKVVTLNHDLPLLHFPNSRKPFSIPSPILRISSFKRHKKRSCLASSSRLGFYTETKTVSESHGVIVDNSTIGRRLLGLAAAVSVAVSLSIFCDSPALAESLTIAFPVSRAREVIETMVEMFPLRSADAAYGKLKAMLSTLGDPFTRLITPKEYQSFRIGSDGNLQGVGLFINSEPRTGHLVSDQTHLETQISLVFGLFVHFLSMNPADRAGIHEGEELVEINGEKLDDVDSEAAAQKLRGRVGTFVTIKLKNVLFGTDSGIREVTVTAVSVRCVKLPRDYIKLSPISSAIIPHTTPDGRLAKTGYVKLTAFSQTAASDMENAVHEMENQDVQSYILDLRNNPLLAIPYQGGLVRAGLDVAQLWLDGDETLVYTIDREGVTSPINMINGHAVTHDPLVVLVNEGSASASEILAGALHDNGRAILVGNRTFGKGKIQSITELNDGSALFVTVAKYLSPSLHEIDQVGIAPDVQCTTGMIDSLTAEIVEKMNSSVPLLEADSCVMVAEHELEARRSNGTAS | failed
MELFEFLLIKYGYIALILILTGGIVGLPIPDEVLLTLVGYYISLGKMSYVLALLASFLGATLGISISYFLGTKLGLPFLMKYGPKFHISHQKIDHAQALFRKYGPILLFIGYFLPGVRHVTGYLSGLSKCKFRTFSLYAYTGAFIWCLVFITLGHEIGNKWYIVEKYLFKSSFLLFLLILCVIGYFIVRNKRMEKNAEKK | failed
MELFGSFAFFGGALFGGLGLLLYRALGLPWRLGYRHLIGALCLAVWLAVFWTRPYQPLGLLAVASAALWAMRRGYLPTWAAVLLTMAPLLLLKCGITTMTGMLGLSFATFRAVDVLLFAPRNERISPLDYCIYLFFPLTLLAGPMYRWRNFQADLKRGYEGVTLETWLAGLELLIFGVIQKFGVAEAIWRYGLNTLDAHDYSLTGVALNASLYSFYLFFDFAGYSSMAIGVGMLFGFTLPVNFRNPLASANPQDFWRRWHISLSEWLRDVVFMPIYKALSKTAFFGRHRLAAQNIGILATLLAMGVWNGLALHYVVSGLMFGAYSVGHNLLVQHARTRPALQAFLARRPVQWAGRALTLILAALALYVFSGRSPI | failed
MELIVPILAAAYLAVLLVKTAAALWVVRGERLRPARSAVATPADVAILQPILGGDAHLQEVLAANVQALPQAQFIWLLDTDDGPGNAAADAVVAQYPQLRIARMLVPPAPPGINPKAWKLDYALPHIDAPVSLILDDDAHLGDRALSQLLLDLAHADVVTALPYYRDSATLAGRLLAQFVNNNAALTYLGWLPFAAPLTINGMCYAARTEQLRRWGGFTALLEQLTDDLAFATLVRDRGGRLWQSTAPVAMRTDMPDLRGYVRQMHRWMLFASILLGRQRLRVRSAIGVLQGLPPVLLLAMLVCACVQHTWPAALCVLIVLLARALLLCGVQWRVTGAVRHRLLLSLCAECLQPLHLLHAALVRTIRWRTRRYRVLPDGCFRAE | failed
